Among the data in patent US20240352102A1 are fluorescence intensity values, retold here.

Holding throughout (test): peptide microarray
In one experiment the target is T1, Peptide_051.
T1 sequence (peptide): RTPPKSPSSAKSRLQ

For the next experiment, the target named is T2, Peptide_059.
T2 sequence (peptide): STENLKHQPGGGKVQ

For another experiment, the target named is T3, Peptide_060.
T3 sequence (peptide): LKHQPGGGKVQIINK

The next experiment deals with T4, Peptide_061.
T4 sequence (peptide): PGGGKVQIINKKLDL

Several values for one entry are separate records, joined by “and”; a condition that tells them apart may be missing. Identical values can stand only once.

B1: mAb TRC35 (antibody, V domains shown)
VH: QVQLQQPGTELVKPGASVKLSCKASGYTFTSYWLQWVKQRPGQGLEWIGEIDPSDSYTNYNQKFKGKATLTVDTSSSTAYMQLSSLTSEDSAVYYCATLTGSWGQGTTLAVSS
VL: DVLLTQTPLSLPVSLGDQASISCRASQSIVDSNGNTFLEWYLQKSGQSPKVLIYKVSNRFSGVPDRFSGRGSGTDFTLKISRVEAEDLGVYYCFQGSHVPYTFGGGTKLEIK
As for B1, the fluorescence intensity in the experiment with Peptide_051 was 151 and 83.3; with Peptide_059, 204 and 126; with Peptide_060, 793 and 655; with Peptide_061 it was 157 and 114.
